According to paper PMC4797271, “The quorum-sensing regulator ComA from Bacillus subtilis activates transcription using topologically distinct DNA motifs”:

Target: T1, ComA (Bacillus subtilis, UniProt P14204 1-214)
T1 sequence: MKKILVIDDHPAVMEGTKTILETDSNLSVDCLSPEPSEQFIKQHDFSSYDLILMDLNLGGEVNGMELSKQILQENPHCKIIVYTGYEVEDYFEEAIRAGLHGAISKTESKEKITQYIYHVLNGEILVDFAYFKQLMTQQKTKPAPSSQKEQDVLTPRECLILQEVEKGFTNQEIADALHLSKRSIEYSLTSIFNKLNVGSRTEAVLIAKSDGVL
Test: EMSA; multiple complexes; EMSA: 10 mM HEPES pH 7.6, 2 mM MgCl2, 0.1 mM EDTA, 200 mM KCl, 5 mM DTT, 10% glycerol; 10 ng DNA in 15 ul, 20 min, room temperature
Conditions: protein: recombinant; tags: N-terminal His6 (from expression primer); chain copies: 2; label: 5' biotin on strand 1; blunt

B1: Ppel DR cluster (DR1-DR3) (dsDNA)
DNA 1: CGGCCTTTTGGTTTTTTTGCGGTCTTTGCGGTGGGATTTTGCAGAAT
DNA 2: ATTCTGCAAAATCCCACCGCAAAGACCGCAAAAAAACCAAAAGGCCG
  binding result: binds
